Test results as given in patent US20230203169 (published 2023).

B1: Rituximab (antibody)
chain 1: QVQLQQPGAELVKPGASVKMSCKASGYTFTSYNMHWVKQTPGRGLEWIGAIYPGNGDTSYNQKFKGKATLTADKSSSTAYMQLSSLTSEDSAVYYCARSTYYGGDWYFNVWGAGTTVTVSA
chain 2: QIVLSQSPAILSASPGEKVTMTCRASSSVSYIHWFQQKPGSSPKPWIYATSNLASGVPVRFSGSGSGTSYSLTISRVEAEDAATYYCQQWTSNPPTFGGGTKLEIK

Assays:
FcγRIIIa 158F (human) = FcγRIIIa 158F (human) (UniProt P08637); assay: BLI
CD20 [1] = target: T1, CD20 (human, UniProt P11836); assay: FACS, Wil2-s cells, 4C
T1 chain: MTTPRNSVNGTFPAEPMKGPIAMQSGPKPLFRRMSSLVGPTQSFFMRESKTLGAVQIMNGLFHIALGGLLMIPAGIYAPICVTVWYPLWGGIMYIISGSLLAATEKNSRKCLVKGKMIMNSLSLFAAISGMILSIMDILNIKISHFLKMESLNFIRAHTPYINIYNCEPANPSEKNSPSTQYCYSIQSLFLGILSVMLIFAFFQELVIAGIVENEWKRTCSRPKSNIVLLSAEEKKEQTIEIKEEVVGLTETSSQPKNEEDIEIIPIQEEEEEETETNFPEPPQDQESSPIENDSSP

CD20 [2] = target: T1, CD20; assay: FACS, Raji cells, 4C
CD20 [3] = target: T1, CD20; assay: FACS, Wil2-s cells, 4C
CD20 [4] = target: T1, CD20; assay: FACS, Raji cells, 4C

Chain of FcγRIIIa 158F (human) (P08637 17-208): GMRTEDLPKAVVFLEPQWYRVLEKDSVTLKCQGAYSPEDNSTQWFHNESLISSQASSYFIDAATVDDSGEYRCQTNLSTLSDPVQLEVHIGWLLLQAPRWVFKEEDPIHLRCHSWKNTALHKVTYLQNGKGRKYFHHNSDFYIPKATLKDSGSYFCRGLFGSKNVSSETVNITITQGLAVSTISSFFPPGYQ

| Molecule | Kd (FcγRIIIa 158F (human)) [nM] | Kd (CD20 [1]) [nM] | IC50 (CD20 [2]) [nM] | IC50 (CD20 [3]) [nM] | Kd (CD20 [4]) [nM] |
| --- | --- | --- | --- | --- | --- |
| Obinutuzumab (Gazyva) | 226 |  |  |  |  |
| B1 |  | 16 | 13.3 | 16.8 | 12.7 |
